T1: HuCDCP1-C (human, UniProt Q9H5V8 30-667)
T1 construct: range 30-667; expressed in HEK-293T, purified by Fc/his tag; also called human CDCP1-C; full-length extracellular domain of human CDCP1; not shown: Fc or his tag
T1 sequence (looked up): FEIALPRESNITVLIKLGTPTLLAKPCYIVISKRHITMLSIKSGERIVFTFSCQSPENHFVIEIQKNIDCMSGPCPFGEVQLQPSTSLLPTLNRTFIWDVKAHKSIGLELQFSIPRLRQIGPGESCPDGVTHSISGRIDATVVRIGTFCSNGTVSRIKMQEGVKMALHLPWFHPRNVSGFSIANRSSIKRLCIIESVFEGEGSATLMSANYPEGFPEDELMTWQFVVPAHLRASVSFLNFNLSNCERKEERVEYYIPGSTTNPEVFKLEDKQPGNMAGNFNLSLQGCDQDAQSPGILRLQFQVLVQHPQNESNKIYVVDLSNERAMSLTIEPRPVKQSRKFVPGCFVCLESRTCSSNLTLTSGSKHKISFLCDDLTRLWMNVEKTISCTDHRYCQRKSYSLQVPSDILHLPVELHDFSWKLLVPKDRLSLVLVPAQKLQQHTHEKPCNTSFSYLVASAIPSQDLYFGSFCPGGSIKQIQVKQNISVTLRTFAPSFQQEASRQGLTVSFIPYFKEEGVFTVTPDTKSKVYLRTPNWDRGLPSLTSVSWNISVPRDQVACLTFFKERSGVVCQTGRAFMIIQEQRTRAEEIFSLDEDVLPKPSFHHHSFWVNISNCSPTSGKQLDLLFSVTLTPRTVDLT

T2: human CDCP1 on tumor cells (human, UniProt Q9H5V8 30-836)
T2 construct: whole, on cells; cell line is named under assay or readout
T2 sequence (looked up): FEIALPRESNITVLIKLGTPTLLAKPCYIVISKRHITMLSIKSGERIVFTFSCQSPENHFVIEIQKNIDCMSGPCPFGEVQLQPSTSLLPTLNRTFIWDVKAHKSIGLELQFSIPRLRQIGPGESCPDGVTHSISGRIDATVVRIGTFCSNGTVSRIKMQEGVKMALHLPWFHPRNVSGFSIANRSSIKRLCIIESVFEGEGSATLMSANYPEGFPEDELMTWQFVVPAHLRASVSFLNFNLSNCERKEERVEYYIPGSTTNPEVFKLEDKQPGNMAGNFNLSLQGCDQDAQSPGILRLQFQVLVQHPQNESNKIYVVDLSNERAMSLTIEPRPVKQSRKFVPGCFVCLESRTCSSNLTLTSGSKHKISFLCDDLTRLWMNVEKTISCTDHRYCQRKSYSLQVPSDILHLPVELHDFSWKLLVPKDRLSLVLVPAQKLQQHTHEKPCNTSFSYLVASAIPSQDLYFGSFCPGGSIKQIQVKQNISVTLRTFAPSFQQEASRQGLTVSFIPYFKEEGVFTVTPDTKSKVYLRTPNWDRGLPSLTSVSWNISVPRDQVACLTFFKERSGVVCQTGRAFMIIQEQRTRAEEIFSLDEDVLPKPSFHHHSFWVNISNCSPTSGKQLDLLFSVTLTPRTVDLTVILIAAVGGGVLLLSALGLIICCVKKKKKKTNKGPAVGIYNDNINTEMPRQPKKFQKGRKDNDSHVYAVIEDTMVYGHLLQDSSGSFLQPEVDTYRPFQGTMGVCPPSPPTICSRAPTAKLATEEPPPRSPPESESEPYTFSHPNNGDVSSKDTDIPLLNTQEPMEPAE


How the values were obtained:
HuCDCP1-C = molecular target: T1, HuCDCP1-C; test: SPR (Caterra), antigen immobilized
Description: The humanized anti-CDCP1 antibodies obtained from Example 11 were subjected to gene cloning, constructed into pTT5 expression vector for a small amount of expression in CHO cells (Expi-CHOS: Gibco A29127), and purified with an Fc affinity column (AT Protein A Diamond Plus. No. AA402312). Antibody purity was analyzed by HPLC and determined by Nanodrop. High-throughput affinity assay was carried out for a small amount of antibodies by Caterra.

[1] = molecular target: T2, human CDCP1 on tumor cells; test: flow cytometry, MDA-MB-231 cells
Description: Flow cytometry was used to detect the binding capacity of antibody to tumor cells. […] 2.0×10⁴ tumor cells were added per well, respectively, and 50 μL (PBS+2% FBS) were added, and after blocking at room temperature with an Fe blocker (Human TruStain FcX™, Biolegend, 422302) for 10 mins, an anti-CDCP1 murine monoclonal antibody at a final concentration of 200 nM was added. The obtained mixture was subjected to a 3-fold serial dilution across 8 concentration points, and incubated at 4° C. for 30 mins, and then incubated with a secondary antibody (PE anti-human IgG Fc Antibody, Biolegend, 410708), detection was performed using a flow cytometer.

Binder	Kd (HuCDCP1-C) [nM]	koff (HuCDCP1-C) [s⁻¹]	kon (HuCDCP1-C) [M⁻¹ s⁻¹]	EC50 [1] [nM]
1CP-152 (antibody, human IgG1, kappa, V domains shown, humanized 8C9, human IgG1 kappa) VH: EVQLVESGGGLVQPGRSLRLSCTTSGLTFTHYHMSWVRQAPGKGLEWVAIIRNKAYGYTTDYSASVRGRFTISRDDSKSILYLQMNSLKTEDTAVYYCVREGGYGYDGTFAYWGQGTLVTVSS VL: DIQMTQSPSSLSASVGDRVTITCRASESVDNYGISFMNWFQQKPGQAPKLLIYAASNQGSGVPSRFSGSGSGTDFTLTISSMQPEDFATYYCQQSKEVPRTFGGGTKVEIKR	4.09	0.000465	114000	–
1CP-124 (antibody, human IgG1, kappa, V domains shown, humanized 3C11, human IgG1 kappa) VH: QVQLVQSGAEVKKPGASVKVSCKASGYNFISYWLHWVRQAPGQGLEWMGGIYPGNTDTTYNQKFKGRVTMTRDTSTSTVYMELSSLRSEDTAVYYCIRYDYDRGMDYWGQGTLVTVSS VL: DIQMTQSPSSLSASVGDRVTITCRASEDIYYRLAWYQQKPGKAPKLLISGATALETGVPSRFSGSGSGKDYTFTISSLQPEDIATYYCQHYWNIPWTFGQGTKVEIKR	0.0993	1.47e-05	148000	–
1CP-129 (antibody, human IgG1, kappa, V domains shown, humanized 3C11, human IgG1 kappa) VH: QVQLVQSGAEVKKPGASVKVSCKASGYNFISYWLHWVRQAPGQGLEWMGGIYPGNTDTTYNQKFKGRVTMTADTSTSTVYMELSSLRSEDTAVYYCIRYDYDRGMDYWGQGTLVTVSS VL: DIQMTQSPSSLSASVGDRVTITCRASEDIYYRLAWYQQKPGKAPKLLISGATALETGVPSRFSGSGSGKDYTLTISSLQPEDIATYYCQHYWNIPWTFGQGTKVEIKR	≤ 0.0623	≤ 1e-05	160000	–
1CP-125 (antibody, human IgG1, kappa, V domains shown, humanized 3C11, human IgG1 kappa) VH: QVQLVQSGAEVKKPGASVKVSCKASGYNFISYWLHWVRQAPGQGLEWMGGIYPGNTDTTYNQKFKGRVTMTADTSTSTVYMELSSLRSEDTAVYYCIRYDYDRGMDYWGQGTLVTVSS VL: DIQMTQSPSSLSASVGDRVTITCRASEDIYYRLAWYQQKPGKAPKLLISGATALETGVPSRFSGSGSGKDYTFTISSLQPEDIATYYCQHYWNIPWTFGQGTKVEIKR	0.144	2.17e-05	151000	–
1CP-128 (antibody, human IgG1, kappa, V domains shown, humanized 3C11, human IgG1 kappa) VH: QVQLVQSGAEVKKPGASVKVSCKASGYNFISYWLHWVRQAPGQGLEWMGGIYPGNTDTTYNQKFKGRVTMTRDTSTSTVYMELSSLRSEDTAVYYCIRYDYDRGMDYWGQGTLVTVSS VL: DIQMTQSPSSLSASVGDRVTITCRASEDIYYRLAWYQQKPGKAPKLLISGATALETGVPSRFSGSGSGKDYTLTISSLQPEDIATYYCQHYWNIPWTFGQGTKVEIKR	≤ 0.0717	≤ 1e-05	139000	–
5B8 (antibody, V domains shown, murine hybridoma mAb) VH: EVQLKESGGGLVQPGGSLRISCATSGLTFTHYHMSWVRQPPGKAPEWLAIIRNKAYGYTTDYSASVRGRFTISRDDSQSILYLQMNTLRAEDSATYYCVREGGYGYDGTFAYWGQGTTVTVSS VL: not shown	–	–	–	0.93
1CP-117 (antibody, human IgG1, kappa, V domains shown, humanized 8E5, human IgG1 kappa) VH: QVQLVQSGSELKKPGASVKVSCKASGYTLTDFSMHWVRQAPGQGLEWMGWINTETGAPTYADDFKGRFVLSLDTSVSTAYLQISSLKAEDTAVYYCSRGRDYDPHFDYWGQGTLVTVSS VL: EIVLTQSPATLSLSPGERATLSCRASQSISDFLHWYQQKPGQSPRLLIKYASQSISGIPARFSGSGSGSDFTLTISSVEPEDFAVYYCQSAHSFPYTFGQGTKLEIKR	0.259	3.93e-05	152000	–
1CP-121 (antibody, human IgG1, kappa, V domains shown, humanized 8E5, human IgG1 kappa) VH: QVQLVQSGSELKKPGASVKVSCKASGYTLTDFSMHWVRQAPGQGLEWMGWINTETGAPTYADDFKGRFVLSLDTSVSTAYLQISSLKAEDTAVYYCSRGRDYDPHFDYWGQGTLVTVSS VL: EIVLTQSPATLSLSPGERATLSCRASQSISDFLHWYQQKSGQSPRLLIKYASQSISGIPARFSGSGSGSDFTLTISSVEPEDFAVYYCQSAHSFPYTFGQGTKLEIKR	≤ 0.0675	≤ 1e-05	148000	–

The next lines start with the values.

Kd (HuCDCP1-C) [nM]	koff (HuCDCP1-C) [s⁻¹]	kon (HuCDCP1-C) [M⁻¹ s⁻¹]	EC50 [1] [nM]	Binder
3.14	0.000385	122000	–	1CP-157 (antibody, human IgG1, kappa, V domains shown, humanized 8C9, human IgG1 kappa) VH: EVQLVESGGGLVQPGRSLRLSCTTSGLTFTHYHMSWVRQAPGKGPEWVAIIRNKAYGYTTDYSASVRGRFTISRDDSKSILYLQMNSLKTEDTAVYYCVREGGYGYDGTFAYWGQGTLVTVSS VL: DIQMTQSPSSLSASVGDRVTITCRASESVDNYGISFMNWFQQKPGQPPKLLIYAASNQGSGVPSRFSGSGSGTDFTLTISSMQPEDFATYYCQQSKEVPRTFGGGTKVEIKR
–	–	–	0.49	10D2 (antibody, V domains shown, murine hybridoma mAb) VH: EVQLQQSGPELKKPGETVKISCKASGYTFTDYSMHWVKQAPGKGLKWMGWINTETGQPTYADDFKGRFAFSLETSASSAYLQINNLKNEDTATYFCTRTFYYDYVGDYWGQGTTVTVSS VL: DIVMTQSHKFMSTSVGDRVSITCKASQDVSTAVAWYRQKPGQSPKLLIYWASTRHTGVPDRLTGSGSGTDFALTINSVQAEDLALYYCQQHSSTPYTFGGGTKLEIK
–	–	–	0.47	8C9 (antibody, V domains shown, murine hybridoma mAb) VH: EVQLKESGGGLVQPGGSLRISCATSGLTFTHYHMSWVRQPPGKAPEWLAIIRNKAYGYTTDYSASVRGRFTISRDDSQSILYLQMNTLRPEDSATYYCVREGGYGYDGTFAYWGQGTTVTVSS VL: not shown
–	–	–	0.19	G10F6 (antibody, V domains shown, murine hybridoma mAb) VH: EVKLVESGPGILQPSQTLSLTCSFSGFSLSTSGMGVSWVRQPSGKGLEWLAHIYWDDDKRYNPSLKGRLTISKDTPRNQVFLEITSVDTTDTATYYCARVPGNWDEDAMDYWGQGTTVTVSS VL: DIQMTQSPLSLPVSLGDQASISCRSSQNIVHTNGNTYLEWYLQKVGQSPKLLIYKVSNRFSGVPDRFSGSGSGTDFTLKISRVEAEDLGVYYCFQGSHVPYTFGGGTKLEIK
–	–	–	0.47	3B12H5 (antibody, V domains shown, murine hybridoma mAb; also called 3B12HS) VH: EVQLQQSGTVLARPGASVKMSCKASGYSFTIYWVHWVKQRPGQGLEWIGAVYPGNDDTSYNQNFKGKAKLTAVTSATTAYMELSSLTIDDSAVYYCTRHTYDEVFDYWGQGTTVTVSS VL: DIVMTQSPSSLSVSLGDRVTITCKASEDIYYRLAWYQQKPGNAPRLLISGGTNLEAGIPSRFSGSGSGKDYTLSITSLQTEDVAIYYCQHYWNTPWTFGGGTKLEIK
–	–	–	1.72	6A7 (antibody, V domains shown, murine hybridoma mAb) VH: EVQLKESGAELVRPGASVKVSCKASGYSFTSYWMNWVKQRPGQGLEWIGMIHPSDSETKLNQKFRDRASLTVDKSSSTAYMQLSSPTSEDSAVYYCTINYESFYYAMDYWGQGTTVTVSS VL: DIVMTQSPASLAVSLGQRATISCRASKSVSTSGYSYMHWYQQKPGQPPKLLLYLASNLESGVPARFSGSGSGADFTLNIHPVEEEDAATYYCLHSRELPYTFGGGTKLEIK
–	–	–	0.67	8E5 (antibody, V domains shown, murine hybridoma mAb; also called 8ES) VH: EVQLKESGPELKKPGETVKISCKASGYTLTDFSMHWLKQAPGKGLKWMGWINTETGAPTYADDFKGRFALSLDTSANTAYLQINNLKNEDTATYFCSRGRDYDPHFDYWGQGTTVTVSS VL: EIVLTQSPATLSVTPGDRVSLSCRASQSISDFLHWYQQRSHESPRLLIKYASQSISGIPSRFGGSGSGSDFTLNINTVEPEDVGMYYCQSAHSFPYTFGGGTKLEIK

Reference: patent US20260250410A1 (SICHUAN HUIYU PHARMACEUTICAL, published 2026)
